Article PMC10311840, “Purification and characterization of inorganic pyrophosphatase for in vitro RNA transcription” (Biochemistry and cell biology = Biochimie et biologie …, 2022)
“And” between values parts separate entries of the source, which are not always exact repeats. Identical values can stand only once.

What was measured:
[1] = target: the molecule itself; assay: SEC-SAXS; HPLC-SAXS at Diamond B21; 50 uL of 450 umol/L iPPase on Superdex 200 Increase 3.2/300 GL; dimer and tetramer peaks analysed, hexamer peak not usable; self-association
[2] = target: the molecule itself; assay: SEC-MALS; SEC-MALS-DLS; Superdex 200 Increase 10/300 GL; 355 umol/L affinity-purified iPPase injected in 500 uL; 25 C; 80 mmol/L Tris-HCl pH 7.5, 30 mmol/L MgCl2, 4 mmol/L spermidine, 20 mmol/L NaCl, 4 mmol/L DTT; self-association, dimer, tetramer and hexamer peaks

B1: yeast inorganic pyrophosphatase (enzyme)
chain: TYTTRQIGAKNTLEYKVYIEKDGKPVSAFHDIPLYADKENNIFNMVVEIPRWTNAKLEITKEETLNPIIQDTKKGKLRFVRNCFPHHGYIHNYGAFPQTWEDPNVSHPETKAVGDNDPIDVLEIGETIAYTGQVKQVKALGIMALLDEGETDWKVIAIDINDPLAPKLNDIEDVEKYFPGLLRATNEWFRIYKIPDGKPENQFAFSGEAKNKKYALDIIKETHDSWKQLIAGKSSDSKGIDLTNVTLPDTPTYSKAASDAIPPASPKADAPIDKSIDKWFFISGSV
notes: inorganic pyrophosphatase, product of the yeast gene IPP1, family 1 iPPase (EC 3.6.1.1); expressed from plasmid pET29b-IPP1-His; no cleavage is described; also called iPPase; yeast iPPase
- stoichiometry N [1]: 4
- stoichiometry N [2]: 2 and 6
